Assay results taken from IntAct's records for PubMed 18769030.

B1: Solute carrier family 12 member 5 (Rattus norvegicus (Rat)), Q63633 (parent)
chain: MSRRFTVTSLPPAASAASADPESRRHSVADPRRLPREDVKGDGNPKESSPFINSTDTEKGREYDGRNMALFEEEMDTSPMVSSLLSGLANYTNLPQGSKEHEEAENNEGGKKKPVQAPRMGTFMGVYLPCLQNIFGVILFLRLTWVVGIAGIMESFCMVFICCSCTMLTAISMSAIATNGVVPAGGSYYMISRSLGPEFGGAVGLCFYLGTTFAGAMYILGTIEILLAYLFPAMAIFKAEDASGEAAAMLNNMRVYGTCVLTCMATVVFVGVKYVNKFALVFLGCVILSILAIYAGVIKSAFDPPNFPICLLGNRTLSRHGFDVCAKLAWEGNETVTTRLWGLFCSSRLLNATCDEYFTRNNVTEIQGIPGAASGLIKENLWSSYLTKGVIVERRGMPSVGLADGTPVDMDHPYVFSDMTSYFTLLVGIYFPSVTGIMAGSNRSGDLRDAQKSIPTGTILAIATTSAVYISSVVLFGACIEGVVLRDKFGEAVNGNLVVGTLAWPSPWVIVIGSFFSTCGAGLQSLTGAPRLLQAISRDGIVPFLQVFGHGKANGEPTWALLLTACICEIGILIASLDEVAPILSMFFLMCYMFVNLACAVQTLLRTPNWRPRFRYYHWTLSFLGMSLCLALMFICSWYYALVAMLIAGLIYKYIEYRGAEKEWGDGIRGLSLSAARYALLRLEEGPPHTKNWRPQLLVLVRVDQDQNVVHPQLLSLTSQLKAGKGLTIVGSVLEGTFLDNHPQAQRAEESIRRLMEAEKVKGFCQVVISSNLRDGVSHLIQSGGLGGLQHNTVLVGWPRNWRQKEDHQTWRNFIELVRETTAGHLALLVTKNVSMFPGNPERFSEGSIDVWWIVHDGGMLMLLPFLLRHHKVWRKCKMRIFTVAQMDDNSIQMKKDLTTFLYHLRITAEVEVVEMHESDISAYTYEKTLVMEQRSQILKQMHLTKNEREREIQSITDESRGSIRRKNPANTRLRLNVPEETACDNEEKPEEEVQLIHDQSAPSCPSSSPSPGEEPEGEGETDPEKVHLTWTKDKSAAQKNKGPSPVSSEGIKDFFSMKPEWENLNQSNVRRMHTAVRLNEVIVNKSRDAKLVLLNMPGPPRNRNGDENYMEFLEVLTEQLDRVMLVRGGGREVITIYS

Variants of: B1
Conditions: with mycb2_mouse Mycbp2, Q7TPH6
Sequence of mycb2_mouse Mycbp2, Q7TPH6 (Q7TPH6 whole entry): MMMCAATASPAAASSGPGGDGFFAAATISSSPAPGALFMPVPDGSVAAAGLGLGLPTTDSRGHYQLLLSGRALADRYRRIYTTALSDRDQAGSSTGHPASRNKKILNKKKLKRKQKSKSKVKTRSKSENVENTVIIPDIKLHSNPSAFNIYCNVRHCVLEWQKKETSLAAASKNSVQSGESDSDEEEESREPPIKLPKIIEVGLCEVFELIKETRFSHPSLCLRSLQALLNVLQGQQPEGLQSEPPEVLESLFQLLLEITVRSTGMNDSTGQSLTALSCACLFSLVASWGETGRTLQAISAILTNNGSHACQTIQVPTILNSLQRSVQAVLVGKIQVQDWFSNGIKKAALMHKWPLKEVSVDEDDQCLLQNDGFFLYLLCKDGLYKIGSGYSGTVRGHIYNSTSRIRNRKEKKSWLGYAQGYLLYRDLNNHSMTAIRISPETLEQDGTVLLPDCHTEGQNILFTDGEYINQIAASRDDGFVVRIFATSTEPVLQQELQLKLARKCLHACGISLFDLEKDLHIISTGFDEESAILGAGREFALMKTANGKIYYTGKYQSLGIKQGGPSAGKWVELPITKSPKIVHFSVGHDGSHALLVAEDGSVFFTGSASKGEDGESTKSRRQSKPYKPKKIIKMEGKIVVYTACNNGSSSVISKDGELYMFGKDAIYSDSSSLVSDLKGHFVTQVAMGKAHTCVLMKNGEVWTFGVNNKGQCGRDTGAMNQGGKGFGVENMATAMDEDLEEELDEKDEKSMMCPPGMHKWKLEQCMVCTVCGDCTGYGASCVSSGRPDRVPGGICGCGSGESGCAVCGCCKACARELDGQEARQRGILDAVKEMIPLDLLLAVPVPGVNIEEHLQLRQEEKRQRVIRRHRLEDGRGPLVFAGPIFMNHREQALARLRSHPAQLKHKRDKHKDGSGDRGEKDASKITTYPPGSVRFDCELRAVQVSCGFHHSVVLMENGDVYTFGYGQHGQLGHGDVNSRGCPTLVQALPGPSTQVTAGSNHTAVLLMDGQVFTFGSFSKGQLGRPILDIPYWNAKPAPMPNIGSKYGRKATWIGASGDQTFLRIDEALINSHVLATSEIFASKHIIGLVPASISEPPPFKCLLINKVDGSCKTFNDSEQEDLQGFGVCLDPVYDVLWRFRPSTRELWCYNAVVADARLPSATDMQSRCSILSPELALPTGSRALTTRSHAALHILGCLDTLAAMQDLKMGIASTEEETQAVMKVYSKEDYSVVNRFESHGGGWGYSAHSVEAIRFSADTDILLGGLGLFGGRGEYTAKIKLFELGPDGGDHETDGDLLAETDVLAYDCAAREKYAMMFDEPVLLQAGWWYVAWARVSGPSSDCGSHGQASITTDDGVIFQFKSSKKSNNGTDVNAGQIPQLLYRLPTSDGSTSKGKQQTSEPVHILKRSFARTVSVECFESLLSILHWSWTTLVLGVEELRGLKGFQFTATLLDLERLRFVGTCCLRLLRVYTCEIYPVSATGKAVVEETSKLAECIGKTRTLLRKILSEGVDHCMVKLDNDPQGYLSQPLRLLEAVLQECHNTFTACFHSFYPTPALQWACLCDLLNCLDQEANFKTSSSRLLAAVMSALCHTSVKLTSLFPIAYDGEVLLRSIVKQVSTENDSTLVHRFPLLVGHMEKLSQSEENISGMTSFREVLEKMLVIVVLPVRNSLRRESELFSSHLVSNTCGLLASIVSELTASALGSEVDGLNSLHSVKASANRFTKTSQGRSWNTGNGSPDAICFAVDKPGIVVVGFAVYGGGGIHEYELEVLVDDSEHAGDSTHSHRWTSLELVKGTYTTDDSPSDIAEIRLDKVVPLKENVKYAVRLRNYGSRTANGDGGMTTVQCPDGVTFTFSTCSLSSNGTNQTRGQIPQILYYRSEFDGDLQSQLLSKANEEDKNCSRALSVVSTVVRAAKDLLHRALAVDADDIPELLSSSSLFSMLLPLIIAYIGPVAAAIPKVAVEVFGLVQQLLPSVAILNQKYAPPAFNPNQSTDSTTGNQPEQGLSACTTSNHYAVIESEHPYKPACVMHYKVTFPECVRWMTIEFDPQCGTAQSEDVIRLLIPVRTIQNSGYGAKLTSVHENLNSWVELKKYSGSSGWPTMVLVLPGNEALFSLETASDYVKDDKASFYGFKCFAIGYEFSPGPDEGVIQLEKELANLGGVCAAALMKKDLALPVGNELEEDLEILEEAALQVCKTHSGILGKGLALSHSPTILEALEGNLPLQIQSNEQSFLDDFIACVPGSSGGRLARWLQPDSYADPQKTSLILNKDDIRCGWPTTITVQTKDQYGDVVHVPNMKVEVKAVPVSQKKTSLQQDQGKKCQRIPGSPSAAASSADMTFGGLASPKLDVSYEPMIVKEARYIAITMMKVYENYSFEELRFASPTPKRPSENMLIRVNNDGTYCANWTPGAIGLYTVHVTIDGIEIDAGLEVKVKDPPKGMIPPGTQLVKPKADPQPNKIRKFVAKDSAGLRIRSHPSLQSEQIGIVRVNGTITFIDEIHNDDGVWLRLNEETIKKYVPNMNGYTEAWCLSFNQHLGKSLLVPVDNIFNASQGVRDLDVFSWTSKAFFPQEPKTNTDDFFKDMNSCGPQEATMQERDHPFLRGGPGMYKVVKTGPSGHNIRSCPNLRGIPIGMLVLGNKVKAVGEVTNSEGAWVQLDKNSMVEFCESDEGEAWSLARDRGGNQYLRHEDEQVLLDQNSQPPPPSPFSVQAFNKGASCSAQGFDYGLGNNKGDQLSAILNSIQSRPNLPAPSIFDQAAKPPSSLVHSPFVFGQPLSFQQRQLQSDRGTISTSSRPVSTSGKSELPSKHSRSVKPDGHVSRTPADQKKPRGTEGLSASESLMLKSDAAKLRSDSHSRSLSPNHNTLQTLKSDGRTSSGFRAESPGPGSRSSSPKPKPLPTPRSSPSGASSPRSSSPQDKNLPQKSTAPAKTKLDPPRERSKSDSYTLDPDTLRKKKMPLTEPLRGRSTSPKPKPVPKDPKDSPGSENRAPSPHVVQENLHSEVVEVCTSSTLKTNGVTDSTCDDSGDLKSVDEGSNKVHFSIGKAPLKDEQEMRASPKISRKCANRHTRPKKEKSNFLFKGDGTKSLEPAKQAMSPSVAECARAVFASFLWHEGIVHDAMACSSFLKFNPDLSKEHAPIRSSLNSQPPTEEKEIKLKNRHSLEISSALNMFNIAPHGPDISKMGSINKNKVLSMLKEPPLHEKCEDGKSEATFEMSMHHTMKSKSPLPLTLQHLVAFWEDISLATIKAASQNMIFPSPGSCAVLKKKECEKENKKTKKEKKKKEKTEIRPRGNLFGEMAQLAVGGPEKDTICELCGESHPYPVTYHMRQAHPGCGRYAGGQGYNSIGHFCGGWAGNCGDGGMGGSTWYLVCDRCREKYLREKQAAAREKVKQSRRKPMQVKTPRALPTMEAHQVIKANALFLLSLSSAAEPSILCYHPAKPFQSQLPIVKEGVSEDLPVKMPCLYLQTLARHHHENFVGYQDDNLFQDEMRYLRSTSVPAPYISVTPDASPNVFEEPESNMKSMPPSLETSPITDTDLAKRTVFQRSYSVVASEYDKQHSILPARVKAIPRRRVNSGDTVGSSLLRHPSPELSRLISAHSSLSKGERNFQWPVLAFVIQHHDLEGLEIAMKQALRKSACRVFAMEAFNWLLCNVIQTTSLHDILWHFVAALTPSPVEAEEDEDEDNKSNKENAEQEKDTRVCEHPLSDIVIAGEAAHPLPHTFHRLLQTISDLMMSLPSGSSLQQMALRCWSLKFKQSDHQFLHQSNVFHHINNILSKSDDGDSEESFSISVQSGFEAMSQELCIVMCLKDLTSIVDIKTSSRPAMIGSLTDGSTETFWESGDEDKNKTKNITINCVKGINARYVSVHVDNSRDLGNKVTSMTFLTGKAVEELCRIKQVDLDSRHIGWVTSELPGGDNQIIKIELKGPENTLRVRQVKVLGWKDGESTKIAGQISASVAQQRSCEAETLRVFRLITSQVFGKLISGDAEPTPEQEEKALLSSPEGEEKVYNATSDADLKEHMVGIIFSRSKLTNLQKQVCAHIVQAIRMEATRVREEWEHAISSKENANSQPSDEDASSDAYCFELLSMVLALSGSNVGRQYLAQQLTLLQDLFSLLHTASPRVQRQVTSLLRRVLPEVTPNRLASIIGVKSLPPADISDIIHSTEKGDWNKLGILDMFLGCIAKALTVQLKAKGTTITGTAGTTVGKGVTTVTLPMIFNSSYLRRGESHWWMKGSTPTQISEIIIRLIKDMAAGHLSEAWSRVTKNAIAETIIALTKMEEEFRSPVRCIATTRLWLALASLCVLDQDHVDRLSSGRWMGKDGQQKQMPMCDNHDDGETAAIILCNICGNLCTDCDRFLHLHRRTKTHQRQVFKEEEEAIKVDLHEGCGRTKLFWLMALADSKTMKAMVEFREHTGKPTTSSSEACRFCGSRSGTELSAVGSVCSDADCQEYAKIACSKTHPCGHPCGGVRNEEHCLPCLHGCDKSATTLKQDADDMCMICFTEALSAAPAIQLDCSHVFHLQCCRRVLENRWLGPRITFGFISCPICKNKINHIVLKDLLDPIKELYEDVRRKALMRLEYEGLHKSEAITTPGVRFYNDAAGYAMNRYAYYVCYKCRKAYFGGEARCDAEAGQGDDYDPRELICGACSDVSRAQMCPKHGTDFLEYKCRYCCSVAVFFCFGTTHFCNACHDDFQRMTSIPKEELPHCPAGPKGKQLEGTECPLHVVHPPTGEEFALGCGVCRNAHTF

| Variant | effect of a mutation on the interaction |
| --- | --- |
| R1104A | disrupting interaction |
| N1105E | disrupting interaction |

Variants of: B1
Conditions: with mycb2_mouse Mycbp2, Q7TPH6
Remark: another data set of the same source

| Variant | effect of a mutation on the interaction |
| --- | --- |
| R1104A | decreasing interaction |
